Assay results as given in the supplement of paper PMC10567573.

B1: CCDC6 (parent)
chain: TLFKKIQALQKEKETLAVNYEKEE
B2: PI4K2A (parent)
chain: FVKDPQGRIIAVFKPKNEEPYGHL

Variants of: B1
Test: protein stability index of a GFP-peptide fusion (GPS, HEK-293T) (PSI 1-6); higher = more stable
Conditions: c terminus: a fixed tail appended
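Also: lentivirally expressed fusions sorted by FACS into six bins by GFP to DsRed ratio, PSI derived from sequencing read proportions per bin multiplied by bin number.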

Protein stability index, by site and new letter:
K13: W 1.91
E14: W 2.03; D 3.25
E24: P 2.53
N19: H 3.08; L 2.41
L9: I 3.57
E23: G 2.58

Variants of: B2
Test: as above
Conditions: c terminus: a fixed tail appended

Protein stability index of substitutions, site by site:
Q6: T 2.32; A 1.71; C 1.54; M 1.57; V 2.53; N 1.84; P 2.21; H 1.1; I 1.45; D 2.4; W 1.7; R 1.49; K 1.64; F 1.62; L 2.22; S 1.6; G 1.92; E 1.63; Y 1.6
G7: N 2.23; H 2.79; W 3.45; I 3; K 3.39; R 2.08; F 2.74; V 1.73; A 2.29; E 2.98; P 1.81; Q 2.07; D 1.69; T 1.45; C 2.03; M 3.42
F1: Q 3.69; C 2.77; N 3.21; D 3.69; L 2.25; I 2.18; W 1.89; T 3.36; V 2.84; K 2.8; G 3.09; M 2.76; E 3.71; A 2.63; S 2.76; H 2.44; P 4.09
R8: M 2.87; T 3.95; V 1.72; S 3.87; F 2.27; K 1.61; E 1.98; A 2.51; W 1.14; G 2.47; Q 1.92; I 2.72; H 1.93; C 2.37; L 1.81; N 1.31; Y 1.6
P5: H 2.51; K 2.07; M 1.3; E 2.04; Q 2.83; W 2.7; L 1.39; D 2.03; G 1.5; C 1.66; R 2.16; Y 2.28; A 1.83; N 2.29; T 1.67
K3: Y 2.01; A 1.57; W 2.19; G 2.56; P 1.91; E 1.42; H 1.68; L 1.85; I 2.03; S 2.67; C 2.7; R 3.49; Q 1.32; M 1.47
V2: I 2.01; T 1.94; G 2.09; E 3.33; P 2.13; Y 1.95; K 2.04; S 2.44; D 3.36; L 2.45; N 3.04; M 2.42; C 1.33; W 1.71; Q 1.99; A 2.07; R 2.88; F 2.17
D4: G 1; L 1.11; T 1.48; C 2.08; F 2.21; P 1.31; E 1.49; Y 2.06; K 2.28; H 1.12; Q 2.74; A 2.86; S 1.7
I10: C 2.23; G 2.09; A 2.15; R 2.85; W 2.88; F 2.79; P 2.56; D 1.97; N 2.35; S 1.97; L 2.99; M 2.51; V 1.88; T 2.09; H 2.33; Q 1.74
I9: C 1.85; D 3.44; Q 1.67; K 2.63; F 2.01; L 2.06; V 2.56; W 2.5; T 2.34; E 2.17; N 4.29; R 1.59; S 2.61; Y 1.9
